Measured values from patent publication US20160194653A1.

The substances below were run against GAL4 activation domain-HAB1 fusion protein (UniProt Q9CAJ0) (assay: cell-based or functional assay).
Chain of UniProt Q9CAJ0 (Q9CAJ0 23-511 limits assumed): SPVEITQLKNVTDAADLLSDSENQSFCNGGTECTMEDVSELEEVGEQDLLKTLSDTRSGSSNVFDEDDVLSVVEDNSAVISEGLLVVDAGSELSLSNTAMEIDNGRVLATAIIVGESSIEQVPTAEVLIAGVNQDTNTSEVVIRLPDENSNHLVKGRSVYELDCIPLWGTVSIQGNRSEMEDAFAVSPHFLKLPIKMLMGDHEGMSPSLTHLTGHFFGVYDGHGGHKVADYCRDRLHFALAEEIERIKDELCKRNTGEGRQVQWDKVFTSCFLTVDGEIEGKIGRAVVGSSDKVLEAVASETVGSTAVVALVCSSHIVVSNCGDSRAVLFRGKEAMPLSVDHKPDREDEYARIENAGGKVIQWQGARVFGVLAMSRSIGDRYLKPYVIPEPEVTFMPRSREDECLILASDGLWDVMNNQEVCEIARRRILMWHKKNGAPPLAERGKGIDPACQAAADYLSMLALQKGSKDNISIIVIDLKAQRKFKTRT

Row | Minimal conc. For ABA response [µM] | uracil-independent growth (URA3 reporter, yeast two-hybrid) on medium with ABA [nM] | Substance
1 | 0.25 |  | PYR1 mutant A160C (from UniProt P04386 1-147) (receptor)
2 | 0.25 |  | PYR1 mutant A160I (from UniProt P04386 1-147) (receptor)
3 | 0.25 |  | PYR1 mutant A160V (from UniProt P04386 1-147) (receptor)
4 | 0.5 |  | PYR1 mutant E141C (from UniProt P04386 1-147) (receptor)
5 | 0.25 |  | PYR1 mutant E141I (from UniProt P04386 1-147) (receptor)
6 | 0.25 |  | PYR1 mutant E141L (from UniProt P04386 1-147) (receptor)
7 | 0.25 |  | PYR1 mutant E141M (from UniProt P04386 1-147) (receptor)
8 | 0.5 |  | PYR1 mutant E141N (from UniProt P04386 1-147) (receptor)
9 | 0.5 |  | PYR1 mutant E141T (from UniProt P04386 1-147) (receptor)
10 | 0.5 |  | PYR1 mutant E141V (from UniProt P04386 1-147) (receptor)
11 | 0.5 |  | PYR1 mutant E141W (from UniProt P04386 1-147) (receptor)
12 | 0.25 |  | PYR1 mutant E141Y (from UniProt P04386 1-147) (receptor)
13 | 0.25 |  | PYR1 mutant F61L (from UniProt P04386 1-147) (receptor)
14 | 0.25 |  | PYR1 mutant F61M (from UniProt P04386 1-147) (receptor)
15 | 0.25 |  | PYR1 mutant I110C (from UniProt P04386 1-147) (receptor)
16 | 0.5 |  | PYR1 mutant I110S (from UniProt P04386 1-147) (receptor)
17 | 0.25 |  | PYR1 mutant V81I (from UniProt P04386 1-147) (receptor)
18 | 0.25 |  | PYR1 mutant V81Y (from UniProt P04386 1-147) (receptor)
19 |  | 50 | PYR1F61L, A160C (from UniProt P04386 1-147) (receptor)
20 |  | 50 | PYR1F61L, V81I, I110C, A160V (from UniProt P04386 1-147) (receptor)
21 |  | 50 | PYR1F61M, A160V (from UniProt P04386 1-147) (receptor)
22 |  | 50 | PYR1F61M, I110S, A160V (from UniProt P04386 1-147) (receptor)
